Measurements taken from publication doi:10.1101/2021.01.30.428949 (bioRxiv, 2021).
Values joined by “and” are separate entries in the source; they are usually repeats but may differ in a detail not shown here. Identical values can stand only once. Like-named read-outs stand apart in the source and are kept apart here. Each block holds one molecule with its values, some of them ahead of it.

Columns and labels:
Assay in all cases: mass photometry
[1] = target: At2-CysPRXA F84R variant (Arabidopsis thaliana)
[2] = target: At2-CysPRXA C54S variant (Arabidopsis thaliana)
mass photometry [3] = target: the molecule itself
mass photometry [4] = target: the molecule itself; remark: listed apart in the source
mass photometry [5] = target: the molecule itself; remark: listed apart in the source
mass photometry [6] = target: the molecule itself; remark: listed apart in the source
mass photometry [7] = target: the molecule itself; remark: listed apart in the source

- stoichiometry N [1]: 2 and 4
Molecule: At2-CysPRXA F84R variant (enzyme)

- stoichiometry N [2]: 10
Molecule: At2-CysPRXA C54S variant (enzyme)

B1: human peroxiredoxin HsPRX3, reduced (enzyme, UniProt P30048 62-256, looked up)
chain: APAVTQHAPYFKGTAVVNGEFKDLSLDDFKGKYLVLFFYPLDFTFVCPTEIVAFSDKANEFHDVNCEVVAVSVDSHFSHLAWINTPRKNGGLGHMNIALLSDLTKQISRDYGVLLEGSGLALRGLFIIDPNGVIKHLSVNDLPVGRSVEETLRLVKAFQYVETHGEVCPANWTPDSPTIKPSPAASKEYFQKVNQ
- stoichiometry N (mass photometry [3]): 40 and 20
- stoichiometry N (mass photometry [4]): 2

B2: human peroxiredoxin HsPRX2, reduced (enzyme, UniProt P32119 1-198, looked up)
chain: MASGNARIGKPAPDFKATAVVDGAFKEVKLSDYKGKYVVLFFYPLDFTFVCPTEIIAFSNRAEDFRKLGCEVLGVSVDSQFTHLAWINTPRKEGGLGPLNIPLLADVTRRLSEDYGVLKTDEGIAYRGLFIIDGKGVLRQITVNDLPVGRSVDEALRLVQAFQYTDEHGEVCPAGWKPGSDTIKPNVDDSKEYFSKHN
- stoichiometry N (mass photometry [3]): 20
- stoichiometry N (mass photometry [4]): 2

B3: At2-CysPRXA, oxidized (H2O2-treated) (enzyme, Arabidopsis thaliana, UniProt Q96291 66-266, looked up)
chain: KAQADDLPLVGNKAPDFEAEAVFDQEFIKVKLSDYIGKKYVILFFYPLDFTFVCPTEITAFSDRHSEFEKLNTEVLGVSVDSVFSHLAWVQTDRKSGGLGDLNYPLISDVTKSISKSFGVLIHDQGIALRGLFIIDKEGVIQHSTINNLGIGRSVDETMRTLQALQYIQENPDEVCPAGWKPGEKSMKPDPKLSKEYFSAI
modifications: disulfide bond of the peroxidatic cysteine (CysP54) with the resolving cysteine (CysR176)
- stoichiometry N (mass photometry [5]): 2

B4: Arabidopsis thaliana 2-Cysteine peroxiredoxin A (At2-CysPRXA), wildtype, reduced (enzyme, UniProt Q96291 66-266, looked up)
chain: B3 chain
- ratio of dimer units in the decameric fraction to those in the dimer fraction (mass photometry [6]): ~5 fold
- Kd (mass photometry [7]): < 50 nM
- stoichiometry N (mass photometry [7]): 20

B5: At2-CysPRXA, hyperoxidized (H2O2 plus DTT) (enzyme, Arabidopsis thaliana, UniProt Q96291 66-266, looked up)
chain: B3 chain
modifications: C54 thiol hyperoxidized to a sulfinic acid residue
- stoichiometry N (mass photometry [5]): 10

B6: human peroxiredoxin HsPRX1, reduced (enzyme, UniProt Q06830 1-199, looked up)
chain: MSSGNAKIGHPAPNFKATAVMPDGQFKDISLSDYKGKYVVFFFYPLDFTFVCPTEIIAFSDRAEEFKKLNCQVIGASVDSHFCHLAWVNTPKKQGGLGPMNIPLVSDPKRTIAQDYGVLKADEGISFRGLFIIDDKGILRQITVNDLPVGRSVDETLRLVQAFQFTDKHGEVCPAGWKPGSDTIKPDVQKSKEYFSKQK
- stoichiometry N (mass photometry [4]): 10
